According to paper PMC7082075:
Values joined by “and” are separate entries in the source; they are usually repeats but may differ in a detail not shown here. Equal entries are not always repeated.

Columns and labels:
[1] = target: SNX3-retromer complex (retromer VPS35/VPS26/VPS29 with SNX3), Q96QK1; experiment: ITC; Fig 1E: approximately 2–3 mM of peptides titrated into the SNX3-retromer complex (10 μM Retromer + 100 μM SNX3); 100 mM HEPES pH 7.5, 300 mM NaCl, 2 mM βME, 25°C; one set of sites model; single values of triplicates
[2] = target: SNX3-retromer complex (Retromer + SNX3), Q96QK1; experiment: ITC; approximately 2–3 mM peptide titrated into SNX5^PX (300 μM) or the SNX3-retromer complex (10 μM Retromer + 100 μM SNX3); 100 mM HEPES pH 7.5, 300 mM NaCl, 2 mM βME, 25°C; one set of sites model (Fig 1D, 1E, 2B)

Kd [1] | Kd [2] | Binder
100 µM and 113 µM and 117 µM |  | AQPELYLLNTMDADSLVSR (modifications not checked) [DMT1-II peptide (divalent metal transporter 1)]
 | 110 µM | AQPELYLLNTMDADSLVSR (modifications not checked) [DMT1-II peptide]
